Measured values as given in PMC10997057.

Target: murine splenic AA amyloid extract (mouse (endogenous in spleen)) (UniProt P05367)
Experiment: co-sedimentation; pulldown with murine splenic AA amyloid extract in the presence of 20 μg non-radiolabeled peptide (competition)

murine splenic AA amyloid extract (mouse (endogenous in spleen)), sequence (P05367 20-122): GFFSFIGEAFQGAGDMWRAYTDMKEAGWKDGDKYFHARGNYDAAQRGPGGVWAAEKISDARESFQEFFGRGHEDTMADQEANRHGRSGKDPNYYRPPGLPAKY

GGGYSKAQKAQAKQAKQAQKAQKAQAKQAKQAQKAQKAQAKQAKQ [non-radiolabeled peptide p5+14] was tested, and the % of ^99mTc-p5+14 bound in the presence of 20 μg non-radiolabeled peptide was 4%.
